The values that follow come from patent US20180044434A1 (PUBLIC UNIVERSITY CORPORATION YOKOHAMA CITY UNIVERSITY, published 2018).

B1: humanized anti-PAD4 antibody derived from G8, VH H4.00 / VL L4.00 (antibody, human IgG1, kappa, V domains shown)
VH: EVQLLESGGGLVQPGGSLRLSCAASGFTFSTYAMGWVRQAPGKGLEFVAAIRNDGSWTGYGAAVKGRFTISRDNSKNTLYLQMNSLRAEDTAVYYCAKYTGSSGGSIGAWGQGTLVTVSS
VL: SYELTQPPSVSVSPGQTARITCSGGNRNYYYGWYQQKPGQAPVLVIYANDKRPSGIPERFSGSSSGTTVTLTISGVQAEDEADYYCGTADTGKYVFGGGTKLTVLG
notes: IgG1 kappa; also called G8 H4.00/L4.00
B2: humanized anti-PAD4 antibody derived from G8, VH H4.32 / VL L4.06 (antibody, IgG1, V domains shown)
VH: EVQLLESGGGLVQPGGSLRLSCAASGFTFSTYAMGWVRQAPGKGLEFVAAIRNDGSWTGYGAAVKGRVTISRDNSKNTVYLQMNSLRAEDTAVYYCAKYTGSSGGSIGAWGQGTLVTVSS
VL: B1 VL with L44T, S64Y, T67N, V69T
notes: IgG1 kappa; also called G8 H4.32/L4.06
B3: humanized anti-PAD4 antibody derived from G8, VH H4.32 / VL L4.00 (antibody, IgG1, V domains shown)
VH: B2 VH
VL: B1 VL
notes: IgG1 kappa; also called G8 H4.32/L4.00
B4: humanized anti-PAD4 antibody derived from G8, VH H4.32 / VL L4.17 (antibody, IgG1, V domains shown)
VH: B2 VH
VL: B1 VL with L44T, S64T, T67N, V69T
notes: IgG1 kappa; also called G8 H4.32/L4.17
B5: humanized anti-PAD4 antibody derived from G8, VH H4.15 / VL L4.29 (antibody, human IgG1, kappa, V domains shown)
VH: B2 VH with A49S, V68F
VL: B1 VL with L44T, S64N, T67S, V69T
notes: IgG1 kappa; also called G8 H4.15/L4.29
B6: humanized anti-PAD4 antibody derived from G8, VH H4.32 / VL L4.29 (antibody, IgG1, V domains shown)
VH: B2 VH
VL: B1 VL with L44T, S64N, T67S, V69T
notes: IgG1 kappa; also called G8 H4.32/L4.29
B7: Humanized Ab #G8-H4.00/L4.29 (antibody, human IgG1, kappa, V domains shown)
VH: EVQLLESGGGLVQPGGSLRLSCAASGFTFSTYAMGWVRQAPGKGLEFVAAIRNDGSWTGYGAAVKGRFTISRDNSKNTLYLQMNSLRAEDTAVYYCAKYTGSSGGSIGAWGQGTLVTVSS
VL: B1 VL with L44T, S64N, T67S, V69T
notes: also called humanized anti-PAD4 antibody derived from G8 (IgG1 kappa); G8 VH H4.00 / VL L4.29
B8: Humanized Ab #H7-H4.00/L4.29 (antibody, human IgG1, kappa)
heavy: not shown
light: SYELTQPPSVSVSPGQTARITCSGGSGRYYYGWYQQKPGQAPVTVIYSSTHRPSGIPERFSGSNSGSTTTLTISGVQAEDEADYYCGTADSSSYVFGGGTKLTVLGTVAAPSVFIFPPSDEQLKSGTASVVCLLNNFYPREAKVQWKVDNALQSGNSQESVTEQDSKDSTYSLSSTLTLSKADYEKHKVYACEVTHQGLSSPVTKSFNRGEC
notes: also called humanized anti-PAD4 antibody derived from H7 (IgG1 kappa)
B9: humanized anti-PAD4 antibody derived from A11 (H4.00/L4.29, IgG1 kappa) (antibody, V domains shown)
VH: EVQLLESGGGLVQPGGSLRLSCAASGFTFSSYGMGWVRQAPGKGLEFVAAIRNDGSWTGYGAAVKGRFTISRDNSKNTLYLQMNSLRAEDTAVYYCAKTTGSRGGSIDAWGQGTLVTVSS
VL: SYELTQPPSVSVSPGQTARITCSGGGRYYYGWYQQKPGQAPVTVIYANDKRPSGIPERFSGSNSGSTTTLTISGVQAEDEADYYCGSAETSSYVFGGGTKLTVLG
notes: also called humanized A11
B10: humanized anti-PAD4 antibody derived from G9 (H4.00/L4.29, IgG1 kappa) (antibody, V domains shown)
VH: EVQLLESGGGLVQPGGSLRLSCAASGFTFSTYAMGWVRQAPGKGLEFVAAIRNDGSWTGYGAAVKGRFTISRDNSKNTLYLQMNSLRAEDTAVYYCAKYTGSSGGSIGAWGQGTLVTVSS
VL: B9 VL
notes: also called humanized G9
B11: H7-derived, humanized anti-PAD4 antibody (IgG4A) (antibody)
heavy: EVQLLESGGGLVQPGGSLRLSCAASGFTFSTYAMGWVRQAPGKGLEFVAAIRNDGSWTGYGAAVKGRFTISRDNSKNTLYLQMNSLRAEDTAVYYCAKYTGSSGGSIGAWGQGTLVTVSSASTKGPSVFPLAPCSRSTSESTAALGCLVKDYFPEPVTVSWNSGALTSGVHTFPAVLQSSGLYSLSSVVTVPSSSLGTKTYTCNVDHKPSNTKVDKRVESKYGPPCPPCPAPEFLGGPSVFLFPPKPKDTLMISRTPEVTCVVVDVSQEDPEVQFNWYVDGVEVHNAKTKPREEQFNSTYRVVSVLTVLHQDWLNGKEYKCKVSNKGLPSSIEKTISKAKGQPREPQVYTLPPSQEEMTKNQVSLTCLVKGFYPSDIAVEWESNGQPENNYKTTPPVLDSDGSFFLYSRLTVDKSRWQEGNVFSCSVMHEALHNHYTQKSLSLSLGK
light: SYELTQPPSVSVSPGQTARITCSGGSGRYYYGWYQQKPGQAPVTVIYSSTHRPSGIPERFSGSNSGSTTTLTISGVQAEDEADYYCGTADSSSYVFGGGTKLTVLGQPKAAPSVTLFPPSSEELQANKATLVCLISDFYPGAVTVAWKADSSPVKAGVETTTPSKQSNNKYAASSYLSLTPEQWKSHRSYSCQVTHEGSTVEKTVAPTECS
notes: it may be this one; also called humanized anti-PAD4 antibody (IgG4A) derived from H7

Numbering of substitutions follows the chain as printed.

T1 sequence (Q9UM07 whole entry): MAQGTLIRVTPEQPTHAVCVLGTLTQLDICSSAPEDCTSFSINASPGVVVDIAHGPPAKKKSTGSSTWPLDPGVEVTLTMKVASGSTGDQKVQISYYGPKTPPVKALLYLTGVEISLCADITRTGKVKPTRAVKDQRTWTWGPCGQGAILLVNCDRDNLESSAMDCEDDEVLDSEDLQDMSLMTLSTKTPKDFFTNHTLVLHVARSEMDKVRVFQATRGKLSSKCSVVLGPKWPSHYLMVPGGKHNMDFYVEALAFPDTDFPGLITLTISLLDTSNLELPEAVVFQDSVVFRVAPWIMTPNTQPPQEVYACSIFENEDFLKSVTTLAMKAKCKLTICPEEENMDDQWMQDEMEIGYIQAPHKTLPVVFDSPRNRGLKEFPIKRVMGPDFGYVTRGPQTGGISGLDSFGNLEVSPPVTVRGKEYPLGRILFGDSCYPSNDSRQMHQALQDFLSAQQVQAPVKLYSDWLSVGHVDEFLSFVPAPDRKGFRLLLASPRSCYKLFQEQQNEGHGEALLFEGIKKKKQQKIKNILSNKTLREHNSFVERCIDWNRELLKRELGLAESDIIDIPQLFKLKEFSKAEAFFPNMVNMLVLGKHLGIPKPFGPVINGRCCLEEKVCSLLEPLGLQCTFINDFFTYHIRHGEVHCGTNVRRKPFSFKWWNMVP

One assay has as its target T1, full-length recombinant human PAD4 (human, UniProt Q9UM07 1-663).
T1 construct: Full-length recombinant; also called peptidylarginine deiminase 4
The assay can be described thus: ELISA, immobilized human PAD4. For orientation: ELISA stands for enzyme-linked immunosorbent assay.
As for B1, the “O.D. 490/630 at 0.0078125 µg/mL” value was 0.131, the “O.D. 490/630 at 0.015625 µg/mL” value was determined as 0.247, the “O.D. 490/630 at 0.03125 µg/mL” value amounted to 0.454 and the “O.D. 490/630 at 0.0625 µg/mL” value stood at 0.806. Moreover, the “O.D. 490/630 at 0.125 µg/mL” value was determined as 1.31, the “O.D. 490/630 at 0.25 µg/mL” value was determined as 1.7, the “O.D. 490/630 at 0.5 µg/mL” value was 1.84 and the “O.D. 490/630 at 1 µg/mL” value came to 1.88.

Regarding B2, the “O.D. 490/630 at 0.0078125 µg/mL” value worked out at 1.21, the “O.D. 490/630 at 0.015625 µg/mL” value is 1.6, the “O.D. 490/630 at 0.03125 µg/mL” value was found to be 1.82 and the “O.D. 490/630 at 0.0625 µg/mL” value is 1.91. Further, the “O.D. 490/630 at 0.125 µg/mL” value came out at 1.86, the “O.D. 490/630 at 0.25 µg/mL” value was 1.85, the “O.D. 490/630 at 0.5 µg/mL” value was determined as 1.81 and the “O.D. 490/630 at 1 µg/mL” value was found to be 1.79.

On to B3, for which the “O.D. 490/630 at 0.0078125 µg/mL” value is 0.364, the “O.D. 490/630 at 0.015625 µg/mL” value was 0.649, the “O.D. 490/630 at 0.03125 µg/mL” value came out at 1.05 and the “O.D. 490/630 at 0.0625 µg/mL” value is 1.52. Besides, the “O.D. 490/630 at 0.125 µg/mL” value was determined as 1.76, the “O.D. 490/630 at 0.25 µg/mL” value worked out at 1.84, the “O.D. 490/630 at 0.5 µg/mL” value was 1.91 and the “O.D. 490/630 at 1 µg/mL” value came out at 1.87.

For B4, the “O.D. 490/630 at 0.0078125 µg/mL” value came out at 1.2, the “O.D. 490/630 at 0.015625 µg/mL” value turned out to be 1.56, the “O.D. 490/630 at 0.03125 µg/mL” value was determined as 1.83 and the “O.D. 490/630 at 0.0625 µg/mL” value amounted to 1.88. Moreover, the “O.D. 490/630 at 0.125 µg/mL” value was 1.89, the “O.D. 490/630 at 0.25 µg/mL” value worked out at 1.83, the “O.D. 490/630 at 0.5 µg/mL” value came out at 1.83 and the “O.D. 490/630 at 1 µg/mL” value was found to be 1.82.

With B5, the “O.D. 490/630 at 0.0078125 µg/mL” value was found to be 1.15, the “O.D. 490/630 at 0.015625 µg/mL” value amounted to 1.56, the “O.D. 490/630 at 0.03125 µg/mL” value turned out to be 1.85 and the “O.D. 490/630 at 0.0625 µg/mL” value came out at 1.91. Also, the “O.D. 490/630 at 0.125 µg/mL” value is 1.86, the “O.D. 490/630 at 0.25 µg/mL” value came out at 1.86, the “O.D. 490/630 at 0.5 µg/mL” value was 1.81 and the “O.D. 490/630 at 1 µg/mL” value came out at 1.84.

For B6, the “O.D. 490/630 at 0.0078125 µg/mL” value was 1.26, the “O.D. 490/630 at 0.015625 µg/mL” value stood at 1.69, the “O.D. 490/630 at 0.03125 µg/mL” value is 1.88 and the “O.D. 490/630 at 0.0625 µg/mL” value was found to be 1.9. The “O.D. 490/630 at 0.125 µg/mL” value was 1.89, the “O.D. 490/630 at 0.25 µg/mL” value amounted to 1.85, the “O.D. 490/630 at 0.5 µg/mL” value was 1.84 and the “O.D. 490/630 at 1 µg/mL” value came to 1.84.

Regarding B7, the “O.D. 490/630 at 0.0078125 µg/mL” value was 1.2, the “O.D. 490/630 at 0.015625 µg/mL” value turned out to be 1.55, the “O.D. 490/630 at 0.03125 µg/mL” value was determined as 1.88 and the “O.D. 490/630 at 0.0625 µg/mL” value was found to be 1.88. Besides, the “O.D. 490/630 at 0.125 µg/mL” value amounted to 1.85, the “O.D. 490/630 at 0.25 µg/mL” value was determined as 1.84, the “O.D. 490/630 at 0.5 µg/mL” value turned out to be 1.82 and the “O.D. 490/630 at 1 µg/mL” value is 1.8.

The target of a further assay is T1, full-length recombinant human PAD4. The assay can be described thus: ELISA, immobilized human PAD4. The source holds these as a separate data set.
On to B1, for which the concentration for a half-maximal effect (EC50 (read off the curve)) – broadly, the concentration that produces a half-maximal response – is approximately 80 ng/mL.

The target is the same in a further assay. The assay can be described thus: ELISA, immobilized human PAD4. This is another data set of the same source.
In the case of B8, the “EC50 (read off the curve)” value was approximately 3 ng/mL, the “O.D. 490/630 at 0 µg/mL (blank)” value worked out at 0.083, the “O.D. 490/630 at 0.000064 µg/mL” value is 0.13 and the “O.D. 490/630 at 0.00032 µg/mL” value was 0.269. In addition, the “O.D. 490/630 at 0.0016 µg/mL” value stood at 0.766, the “O.D. 490/630 at 0.008 µg/mL” value turned out to be 1.72, the “O.D. 490/630 at 0.04 µg/mL” value came out at 2.1 and the “O.D. 490/630 at 0.2 µg/mL” value worked out at 2.07. The “O.D. 490/630 at 1 µg/mL” value stood at 2.08.

As for B7, the concentration for a half-maximal effect (EC50 (read off the curve)) is approximately 2 ng/mL, the “O.D. 490/630 at 0 µg/mL (blank)” value came to 0.069, the “O.D. 490/630 at 0.000064 µg/mL” value turned out to be 0.139 and the “O.D. 490/630 at 0.00032 µg/mL” value was 0.287. Further, the “O.D. 490/630 at 0.0016 µg/mL” value is 0.851, the “O.D. 490/630 at 0.008 µg/mL” value was 1.79, the “O.D. 490/630 at 0.04 µg/mL” value was 2.12 and the “O.D. 490/630 at 0.2 µg/mL” value is 2.1. The “O.D. 490/630 at 1 µg/mL” value turned out to be 2.06.

For B9, the “EC50 (read off the curve)” value was approximately 3 ng/mL, the “O.D. 490/630 at 0 µg/mL (blank)” value came to 0.064, the “O.D. 490/630 at 0.000064 µg/mL” value came out at 0.122 and the “O.D. 490/630 at 0.00032 µg/mL” value came out at 0.245. In addition, the “O.D. 490/630 at 0.0016 µg/mL” value came out at 0.733, the “O.D. 490/630 at 0.008 µg/mL” value worked out at 1.7, the “O.D. 490/630 at 0.04 µg/mL” value worked out at 2.08 and the “O.D. 490/630 at 0.2 µg/mL” value was 2.08. The “O.D. 490/630 at 1 µg/mL” value stood at 2.08.

For the molecule B10, the “EC50 (read off the curve)” value is approximately 3 ng/mL, the “O.D. 490/630 at 0 µg/mL (blank)” value was found to be 0.069, the “O.D. 490/630 at 0.000064 µg/mL” value was found to be 0.116 and the “O.D. 490/630 at 0.00032 µg/mL” value was found to be 0.252. In addition, the “O.D. 490/630 at 0.0016 µg/mL” value is 0.785, the “O.D. 490/630 at 0.008 µg/mL” value amounted to 1.66, the “O.D. 490/630 at 0.04 µg/mL” value turned out to be 2.09 and the “O.D. 490/630 at 0.2 µg/mL” value is 2.03. Moreover, the “O.D. 490/630 at 1 µg/mL” value was 2.06.

For a further assay the target is unchanged. The experiment in a line: ELISA, immobilized human PAD4. The source holds these as a separate data set.
B11: the “EC50 (read off the curve)” value was approximately 4 ng/mL.

For a further assay the target is unchanged. The experiment in a line: SPR (Biacore T200), antibody captured, human PAD4 analyte. The source says:
The humanized anti-PAD4 antibodies derived from G8 and H7 were subjected to Biacore (GE Healthcare, Biacore T200) assay to evaluate their affinity. At that time, the combination of the frameworks was such that the H-chain framework was H4.00 and the L-chain framework was L4.29. The class of each antibody used was IgG1κ. Full-length recombinant human PAD4 was used as an antigen. A Human Antibody Capture kit (GE Healthcare, BR-1008-39) was used for the affinity assay. Specifically, in accordance with the standard protocol provided by the manufacture, NHS/EDC was used and an amine coupling method, in which a free carboxyl group is fixed on a surface of a CM5 chip, was used to immobilize a rabbit anti-human polyclonal antibody on the surface of a CM5 chip. Next, the humanized anti-PAD4 antibodies were each captured by the rabbit anti-human polyclonal antibody. Human PAD4 at each concentration was subjected to Biacore T200 measurement to create a kinetic sensorgram.
A general note: Surface plasmon resonance follows binding to a sensor surface in real time, without labels.
B8: the Kd (commonly the concentration at which binding is half-saturated) was 8.28 nM; the off-rate constant (koff) – broadly, the rate constant with which the complex falls apart – came to 0.000507 s⁻¹; the on-rate (kon) (commonly the rate constant with which the complex forms) was 61300 M⁻¹ s⁻¹.

For B7, the Kd was 1.95 nM, the koff amounted to 0.0002 s⁻¹ and the association rate constant (kon) was found to be 103000 M⁻¹ s⁻¹.
